In data set [1] the test system is HeLa Kyoto. Description: solubility in G1/S (NP-40 vs SDS abundance) (log2 ratio); higher = more soluble. To be noted: cell cycle stage: G1/S.
Data set [2] concerns HeLa Kyoto. Nature of the data set: melting temperature (median over replicates), in situ; higher = more thermally stable.
For data set [3], the system named is HeLa Kyoto. Nature of the data set: solubility change mitosis vs G1/S (difference of NP-40 vs SDS log2 ratios) (log2 ratio difference); higher = more soluble in mitosis.
Data set [4] has as its system HeLa Kyoto. Description: thermal stability score vs G1/S (z-score of summed log2 fold changes over temperatures); higher = more thermally stable than in G1/S.
Setting [5] is: cell cycle stage: early G1 (4.5 h after nocodazole release).
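Throughout, for melting temperature (median over replicates), in situ: HeLa Kyoto cells synchronized by double thymidine or nocodazole block, proteins quantified by TMT10plex mass spectrometry, three independent biological replicates.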
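Throughout, for solubility change mitosis vs G1/S (difference of NP-40 vs SDS log2 ratios): synchronized HeLa Kyoto cells (double thymidine block for G1/S, nocodazole release for mitosis), protein amounts in NP-40 versus SDS lysates quantified by mass spectrometry, three biological replicates.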
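Throughout, for solubility in G1/S (NP-40 vs SDS abundance): HeLa Kyoto cells arrested at G1/S by double thymidine block, proteins quantified by TMT10plex mass spectrometry in mild NP-40 versus SDS extracts, three biological replicates.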
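Throughout, for thermal stability score vs G1/S (z-score of summed log2 fold changes over temperatures): synchronized HeLa Kyoto cells, proteins quantified by TMT10plex mass spectrometry, three biological replicates, mitosis taken 0.5 h after nocodazole release, G1/S directly after double thymidine block.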

Turning to “MKMADRSGKIIPGQVYIEVEYDYEYEAKDRKIVIKQGERYILVKKTNDDWWQVKPDENSKAFYVPAQYVKEVTRKALMPPVKQVAGLPNNSTKIMQSLHLQRSTENVNKLPELSSFGKPSSSVQGTGLIRDANQNFGPSYNQGQTVNLSLDLTHNNGKFNNDSHSPKVSSQNRTRSFGHFPGPEFLDVEKTSFSQEQSCDSAGEGSERIHQDSESGDELSSSSTEQIRATTPPNQGRPDSPVYANLQELKISQSALPPLPGSPAIQINGEWETHKDSSGRCYYYNRGTQERTWKPPRWTRDASISKGDFQNPGDQELLSSEENYYSTSYSQSDSQCGSPPRGWSEELDERGHTLYTSDYTNEKWLKHVDDQGRQYYYSADGSRSEWELPKYNASSQQQREIIKSRSLDRRLQEPIVLTKWRHSTIVLDTNDKESPTASKPCFPENESSPSSPKHQDTASSPKDQEKYGLLNVTKIAENGKKVRKNWLSSWAVLQGSSLLFTKTQGSSTSWFGSNQSKPEFTVDLKGATIEMASKDKSSKKNVFELKTRQGTELLIQSDNDTVINDWFKVLSSTINNQAVETDEGIEEEIPDSPGIEKHDKEKEQKDPKKLRSFKVSSIDSSEQKKTKKNLKKFLTRRPTLQAVREKGYIKDQVFGSNLANLCQRENGTVPKFVKLCIEHVEEHGLDIDGIYRVSGNLAVIQKLRFAVNHDEKLDLNDSKWEDIHVITGALKMFFRELPEPLFTFNHFNDFVNAIKQEPRQRVAAVKDLIRQLPKPNQDTMQILFRHLRRVIENGEKNRMTYQSIAIVFGPTLLKPEKETGNIAVHTVYQNQIVELILLELSSIFGR [ARHGAP12]”, the “solubility in G1/S (log2)” value with HeLa Kyoto [1] is -0.0332. In addition, the melting temperature in the data set with HeLa Kyoto [2] (cell cycle stage: G1/S) turned out to be 50.7 °C; in the data set with HeLa Kyoto [2] (cell cycle stage: mitosis) it was 50.1 °C. For the same sequence, in the data set with HeLa Kyoto [3], the “solubility change mitosis (log2)” value was -0.246. In addition, the thermal stability score in the data set on HeLa Kyoto [4] (setting [5]) was -0.591; with HeLa Kyoto [4] (cell cycle stage: mitosis) it was -0.433.
On to “MKPAAREARLPPRSPGLRWALPLLLLLLRLGQILCAGGTPSPIPDPSVATVATGENGITQISSTAESFHKQNGTGTPQVETNTSEDGESSGANDSLRTPEQGSNGTDGASQKTPSSTGPSPVFDIKAVSISPTNVILTWKSNDTAASEYKYVVKHKMENEKTITVVHQPWCNITGLRPATSYVFSITPGIGNETWGDPRVIKVITEPIPVSDLRVALTGVRKAALSWSNGNGTASCRVLLESIGSHEELTQDSRLQVNISGLKPGVQYNINPYLLQSNKTKGDPLGTEGGLDASNTERSRAGSPTAPVHDESLVGPVDPSSGQQSRDTEVLLVGLEPGTRYNATVYSQAANGTEGQPQAIEFRTNAIQVFDVTAVNISATSLTLIWKVSDNESSSNYTYKIHVAGETDSSNLNVSEPRAVIPGLRSSTFYNITVCPVLGDIEGTPGFLQVHTPPVPVSDFRVTVVSTTEIGLAWSSHDAESFQMHITQEGAGNSRVEITTNQSIIIGGLFPGTKYCFEIVPKGPNGTEGASRTVCNRTVPSAVFDIHVVYVTTTEMWLDWKSPDGASEYVYHLVIESKHGSNHTSTYDKAITLQGLIPGTLYNITISPEVDHVWGDPNSTAQYTRPSNVSNIDVSTNTTAATLSWQNFDDASPTYSYCLLIEKAGNSSNATQVVTDIGITDATVTELIPGSSYTVEIFAQVGDGIKSLEPGRKSFCTDPASMASFDCEVVPKEPALVLKWTCPPGANAGFELEVSSGAWNNATHLESCSSENGTEYRTEVTYLNFSTSYNISITTVSCGKMAAPTRNTCTTGITDPPPPDGSPNITSVSHNSVKVKFSGFEASHGPIKAYAVILTTGEAGHPSADVLKYTYEDFKKGASDTYVTYLIRTEEKGRSQSLSEVLKYEIDVGNESTTLGYYNGKLEPLGSYRACVAGFTNITFHPQNKGLIDGAESYVSFSRYSDAVSLPQDPGVICGAVFGCIFGALVIVTVGGFIFWRKKRKDAKNNEVSFSQIKPKKSKLIRVENFEAYFKKQQADSNCGFAEEYEDLKLVGISQPKYAAELAENRGKNRYNNVLPYDISRVKLSVQTHSTDDYINANYMPGYHSKKDFIATQGPLPNTLKDFWRMVWEKNVYAIIMLTKCVEQGRTKCEEYWPSKQAQDYGDITVAMTSEIVLPEWTIRDFTVKNIQTSESHPLRQFHFTSWPDHGVPDTTDLLINFRYLVRDYMKQSPPESPILVHCSAGVGRTGTFIAIDRLIYQIENENTVDVYGIVYDLRMHRPLMVQTEDQYVFLNQCVLDIVRSQKDSKVDLIYQNTTAMTIYENLAPVTTFGKTNGYIA [PTPRJ]”, for which the “solubility in G1/S (log2)” value in the data set with HeLa Kyoto [1] is -0.204. The melting temperature came out at 50.6 °C in the data set with HeLa Kyoto [2] (cell cycle stage: G1/S) and 50 °C in the data set with HeLa Kyoto [2] (cell cycle stage: mitosis). In addition, in the data set on HeLa Kyoto [3], the “solubility change mitosis (log2)” value was determined as 0.155. Moreover, the results for the thermal stability score in the data set with HeLa Kyoto [4] (setting [5]) and with HeLa Kyoto [4] (cell cycle stage: mitosis) were 3.12 and -2.28, respectively.
In the case of “MKPDETPMFDPSLLKEVDWSQNTATFSPAISPTHPGEGLVLRPLCTADLNRGFFKVLGQLTETGVVSPEQFMKSFEHMKKSGDYYVTVVEDVTLGQIVATATLIIEHKFIHSCAKRGRVEDVVVSDECRGKQLGKLLLSTLTLLSKKLNCYKITLECLPQNVGFYKKFGYTVSEENYMCRRFLK [GNPNAT1]”, the “solubility in G1/S (log2)” value with HeLa Kyoto [1] was determined as 0.222. The melting temperature came to 56.2 °C with HeLa Kyoto [2] (cell cycle stage: G1/S) and 57.5 °C in the data set on HeLa Kyoto [2] (cell cycle stage: mitosis). Further, the “solubility change mitosis (log2)” value in the data set with HeLa Kyoto [3] is -0.0779. For the same sequence, the figures for the thermal stability score in the data set with HeLa Kyoto [4] (setting [5]) and in the data set on HeLa Kyoto [4] (cell cycle stage: mitosis) were -0.0383 and -1.14, respectively.
For “MKPGATGESDLAEVLPQHKFDSKSLEAYLNQHLSGFGAEREATLTIAQYRAGKSNPTFYLQKGFQTYVLRKKPPGSLLPKAHQIDREFKVQKALFSIGFPVPKPILYCSDTSVIGTEFYVMEHVQGRIFRDLTIPGLSPAERSAIYVATVETLAQLHSLNIQSLQLEGYGIGAGYCKRQVSTWTKQYQAAAHQDIPAMQQLSEWLMKNLPDNDNEENLIHGDFRLDNIVFHPKECRVIAVLDWELSTIGHPLSDLAHFSLFYFWPRTVPMINQGSYSENSGIPSMEELISIYCRCRGINSILPNWNFFLALSYFKMAGIAQGVYSRYLLGNNSSEDSFLFANIVQPLAETGLQLSKRTFSTVLPQIDTTGQLFVQTRKGQEVLIKVKHFMKQHILPAEKEVTEFYVQNENSVDKWGKPLVIDKLKEMAKVEGLWNLFLPAVSGLSHVDYALIAEETGKCFFAPDVFNCQAPDTGNMEVLHLYGSEEQKKQWLEPLLQGNITSCFCMTEPDVASSDATNIECSIQRDEDSYVINGKKWWSSGAGNPKCKIAIVLGRTQNTSLSRHKQHSMILVPMNTPGVKIIRPLSVFGYTDNFHGGHFEIHFNQVRVPATNLILGEGRGFEISQGRLGPGRIHHCMRTVGLAERALQIMCERATQRIAFKKKLYAHEVVAHWIAESRIAIEKIRLLTLKAAHSMDTLGSAGAKKEIAMIKVAAPRAVSKIVDWAIQVCGGAGVSQDYPLANMYAITRVLRLADGPDEVHLSAIATMELRDQAKRLTAKI [ACAD11]”, the “solubility in G1/S (log2)” value in the data set with HeLa Kyoto [1] is -0.0959. The results for the melting temperature in the data set with HeLa Kyoto [2] (cell cycle stage: G1/S) and in the data set on HeLa Kyoto [2] (cell cycle stage: mitosis) were 53.9 °C and 52.9 °C, respectively. Also, in the data set with HeLa Kyoto [3], the “solubility change mitosis (log2)” value is -0.0749. Besides, the thermal stability score in the data set on HeLa Kyoto [4] (setting [5]) is 0.241; with HeLa Kyoto [4] (cell cycle stage: mitosis), -0.505.

Values taken from the supplement of paper PMC5998384.
